Substitutions are numbered along the chain they refer to.

The target of test [1] is T1, recombinant human ILT2 protein (analyte in SPR and Octet) (human, UniProt Q8NHL6 24-458, limits assumed).
T1 construct: also called Human ILT2 recombinant proteins
The test can be described thus: SPR, mAb captured on Protein-A, monovalent, two state reaction. As for the experimental part: Measurements were performed on a Biacore T200 apparatus (Biacore GE Healthcare) at 25° C. In all Biacore experiments HBS-EP+ (Biacore GE Healthcare) and NaOH 10 mM served as running buffer and regeneration buffer respectively. Sensorgrams were analyzed with Biacore T100 Evaluation software. Protein-A was purchased from (GE Healthcare). Human ILT2 recombinant proteins were cloned, produced and purified at Innate Pharma. Protein-A proteins were immobilized covalently to carboxyl groups in the dextran layer on a Sensor Chip CMS. The chip surface was activated with EDC/NHS (N-ethyl-N′-(3-dimethylaminopropyl) carbodiimidehydrochloride and N-hydroxysuccinimide (Biacore GE Healthcare)). Protein-A was diluted to 10 μg/ml in coupling buffer (10 mM acetate, pH 5.6) and injected until the appropriate immobilization level was reached (i.e. 600 RU). Deactivation of the remaining activated groups was performed using 100 mM ethanolamine pH 8 (Biacore GE Healthcare). […] For blank subtraction, cycles were performed again replacing ILT2 proteins with running buffer. The monovalent affinity analysis was conducted following a regular Capture-Kinetic protocol as recommended by the manufacturer (Biacore GE Healthcare kinetic wizard). […]
For orientation: SPR reads the build-up and loss of mass on a sensor chip optically.

Test [2] addresses T2, Mutant D4-1B.
T2 construct: D4 domain point mutant; also called ILT2 mutant 4-1b
Kind of test: flow cytometry titration on cells transfected with ILT2 mutant 4-1b. In general terms: Flow cytometry measures light scatter and fluorescence of single cells or particles in a stream.

Test [3] concerns the target T3, Mutant D4-4.
T3 construct: D4 domain point mutant; also called ILT2 mutant 4-4
The test can be described thus: flow cytometry titration on cells transfected with ILT2 mutant 4-4.

For test [4], the target named is T4, human ILT-2 (LILRB1), complete form expressed at the cell surface (human, UniProt Q8NHL6 24-650).
T4 construct: also called CHO-ILT2; CHO ILT2 cell line
T4 sequence (Q8NHL6 24-650): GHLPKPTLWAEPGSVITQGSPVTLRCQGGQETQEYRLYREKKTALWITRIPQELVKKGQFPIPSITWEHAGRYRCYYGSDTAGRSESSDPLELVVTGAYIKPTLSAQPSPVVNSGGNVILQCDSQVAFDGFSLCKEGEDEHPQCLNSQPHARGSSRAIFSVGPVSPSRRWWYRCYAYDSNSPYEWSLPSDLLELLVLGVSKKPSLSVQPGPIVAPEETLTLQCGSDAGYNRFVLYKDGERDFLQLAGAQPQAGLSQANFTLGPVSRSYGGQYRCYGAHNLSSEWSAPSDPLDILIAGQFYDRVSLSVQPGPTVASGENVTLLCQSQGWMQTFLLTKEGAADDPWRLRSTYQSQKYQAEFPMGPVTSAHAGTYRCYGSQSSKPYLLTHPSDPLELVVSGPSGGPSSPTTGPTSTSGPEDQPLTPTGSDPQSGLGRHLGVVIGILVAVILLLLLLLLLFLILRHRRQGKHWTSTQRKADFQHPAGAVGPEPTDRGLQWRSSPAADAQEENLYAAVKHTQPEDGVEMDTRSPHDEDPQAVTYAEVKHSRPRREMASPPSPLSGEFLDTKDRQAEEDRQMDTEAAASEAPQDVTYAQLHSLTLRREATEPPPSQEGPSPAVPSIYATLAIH
The test can be described thus: flow cytometry, CHO-ILT2 cells.

In test [5] the target is T1, recombinant human ILT2 protein (analyte …). Kind of test: BLI (Octet RED96), mAb captured on AMC biosensor, 1:1 model. On the technique in general: BLI is a label-free optical method that tracks binding on a fibre tip over time.
For test [6], the target named is T5, ILT2 mutant 4-2 (human, UniProt Q8NHL6 24-650).
T5 construct: Transfected in HEK293T cells
T5 sequence (Q8NHL6 other isoform, or with tags, fused parts or gaps mutant): as the sequence (Q8NHL6 24-650) above, with W328G, Q330H, R347A, T349A, Y350S, Y355A counted along it
The test can be described thus: flow cytometry titration on cells transfected with ILT2 mutant 4-2.

T1 sequence (Q8NHL6 24-458 limits assumed): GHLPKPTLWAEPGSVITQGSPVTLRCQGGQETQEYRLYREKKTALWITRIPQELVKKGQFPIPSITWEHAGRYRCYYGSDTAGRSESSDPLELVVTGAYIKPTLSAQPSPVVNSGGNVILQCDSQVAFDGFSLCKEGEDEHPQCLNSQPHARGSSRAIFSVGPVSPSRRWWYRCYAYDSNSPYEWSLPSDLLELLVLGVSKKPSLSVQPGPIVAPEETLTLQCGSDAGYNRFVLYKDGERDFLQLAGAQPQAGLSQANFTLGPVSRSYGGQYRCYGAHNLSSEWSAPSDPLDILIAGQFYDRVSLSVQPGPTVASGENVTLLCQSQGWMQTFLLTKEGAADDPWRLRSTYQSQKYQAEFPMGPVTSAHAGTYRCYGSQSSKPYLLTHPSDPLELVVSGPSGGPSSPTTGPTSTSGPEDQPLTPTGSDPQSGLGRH

B1: 27H5 (antibody, human IgG1, V domains shown)
VH: QVQLKESGPGLVAPSQSLSITCTVSGFSLTSYGVSWVRQPPGKGLEWLGVIWGDGNTNYHSALISRLSISKDNSKSQVFLKLNSLQTDDTATYYCARTNWDGWFAYWGQGTLVTVSA
VL: DIVMTQSHKFMSTSVGDRVSITCKASQDVGTAVAWYQQKPGQSPKLLIYWASTRHTGVPDRFTGSGSGTDFTLTISNVQSEDLADYFCQQYRSYPLGTFGGGTKLEIK
Turning to B1, in test [1], the koff – broadly, the first-order rate constant of dissociation – was 0.1 s⁻¹.

B2: 26D8 (antibody, human IgG1, V domains shown)
VH: QVQLQQSGAELVKPGASVKLSCKASGYTFTEHTIHWIKQRSGQGLEWIGWFYPGSGSMKYNEKFKDKATLTADKSSSTVYMELTRLTSEDSAVYFCARHTNWDFDYWGQGTTLTVSS
VL: DIVLTQSPASLAVSLGQRATISCKASQSVDYGGDSYMNWYQQKPGQPPKLLIYAASNLESGIPARFSGSGSGTDLTLNIHPVEEDDAAMYYCQQSNEEPWTFGGGTKLEIK
Turning to B2, the EC50 (read off the curve) (as a rule, the concentration needed to bring the measured effect to its halfway point) in test [2] is approximately 0.2 µg/mL.

B3: 18E1 (antibody, human IgG1, V domains shown)
VH: B2 VH with K19R, E31A, I37V, F51L, M58I, T84S
VL: B2 VL with D1N, D34A, D85E
On to B3, for which the “EC50 (read off the curve)” value in test [2] and in test [3] was approximately 0.3 µg/mL throughout.

B4: GHI/75 (antibody, V domains shown)
VH: EVILVESGGALVRPGGSLKLSCAASGFTFSSNAMSWVRQTPEKRLEWVATISNGGTFTYYPDSVKGRFTISRDNAKNTLYLQMNSLRSEDTAMYYCARHGDGNYGDPLDYWGQGTTLTVSS
VL: DIQMTQSPASQSASLGESVTITCLASQTIGTWLAWYQQKPGKSPQLLIYAATNLADGVPSRFSGSGSGTKFSFKISSLQAEDFVSYYCQQLYSTPFTFGSGTKLEIK
In the case of B4, the concentration giving a half-maximal response (EC50) (usually the midpoint of the concentration-response curve) in test [4] was found to be 5.39 µg/mL. Moreover, in test [5], the Kd (usually a measure of binding affinity in units of concentration) was determined as 28.1 nM; the dissociation rate constant (koff) is 0.00038 s⁻¹; the kon – broadly, the rate constant with which the complex forms – came out at 13000 M⁻¹ s⁻¹.

B5: 27C10 (antibody, human IgG1, V domains shown)
VH: EVQLQESGPGLVKPSQSLSLTCSVTGYSITSGYYWNWIRQFPENKLEWMGYIRYDGSNNYNPSLNNRISITRDASKNQFFLKLNSVTTEDTATYYCARGWLLWFYAVDYWGQGTSVTVSS
VL: DVVMTQTPLSLPVSLGDQASISCRSSQSIVHTNGNTYLEWYLQKSGQSPKLLIYKVSNRLSGVPDRFSGSGSGTDFTLKISRVEAEDLGIYYCFQGSHVPWTFGGGTKLEIK
In the case of B5, the “EC50 (read off the curve)” value in test [2] is approximately 0.5 µg/mL; in test [6], approximately 0.6 µg/mL; in test [3], approximately 0.5 µg/mL.

B6: 3H5 (antibody, human IgG1, V domains shown)
VH: QVQLKESGPGLVAPSQSLSITCTVSGFSLTSYGVSWVRQPPGKGLEWLGVIWGDGSTNYHSALISRLSISKDNSKSQVFLKLNSLQTDDTATYYCAKPRWDDYAMDYWGQGTSVTVSS
VL: DIQMTQTTSSLSASLGDRVTISCRASQDISNYLNWYQQKPDGTVKLLIYYTSRLHSGVPSRFSGSGSGTDYSLTISNLEQEDIATYFCQQGNTLWTFGGGTKLEIK
With B6, the koff in test [1] is 0.008 s⁻¹.

The record behind these values is patent US20220025045A1 (INNATE PHARMA, published 2022).
